Experimental data reported in patent US20060257938A1, “Method of screening for drugs that block ligand binding to a lipid binding protein” (priority 2005, published 2006).
Changes are numbered by the printed parent chain.

B1: 14L 38M 72A 117F (protein, listed as Rattus norvegicus)
chain: AFDGTWKVDRNENLEKFMEKMGINVVKRKLGAHDNLKMTITQEGNKFTVKESSNFRNIDVVFELGVDFAYSAADGTELTGTWTMEGNKLVGKFKRVDNGKELIAVREISGNELIQTFTYEGVEAKRIFKKE
modifications: PEPTIDE (1)...(131) wild-type rat intestinal fatty acid binding protein
B2: 49N, 72A (protein, listed as Rattus norvegicus)
chain: B1 chain with L14Y, M38L, V49N, F117Y
modifications: PEPTIDE (1)...(131) wild-type rat intestinal fatty acid binding protein
B3: 14I 72G 117V (protein, listed as Rattus norvegicus)
chain: B1 chain with L14I, M38L, A72G, F117V
modifications: PEPTIDE (1)...(131) wild-type rat intestinal fatty acid binding protein
B4: 14L 72G 117V (protein, listed as Rattus norvegicus)
chain: B1 chain with M38L, A72G, F117V
modifications: PEPTIDE (1)...(131) wild-type rat intestinal fatty acid binding protein
B5: 106D, 72A (protein, listed as Rattus norvegicus)
chain: B1 chain with L14Y, M38L, R106D, F117Y
modifications: PEPTIDE (1)...(131) wild-type rat intestinal fatty acid binding protein
B6: 55Y, 72A (protein, listed as Rattus norvegicus)
chain: B1 chain with L14Y, M38L, F55Y, F117Y
modifications: PEPTIDE (1)...(131) wild-type rat intestinal fatty acid binding protein
B7: 23L, 72A (protein, listed as Rattus norvegicus)
chain: B1 chain with L14Y, I23L, M38L, F117Y
modifications: PEPTIDE (1)...(131) wild-type rat intestinal fatty acid binding protein
B8: 14L 72G 117I (protein, listed as Rattus norvegicus)
chain: B1 chain with M38L, A72G, F117I
modifications: PEPTIDE (1)...(131) wild-type rat intestinal fatty acid binding protein
B9: 82F, 72A (protein, listed as Rattus norvegicus)
chain: B1 chain with L14Y, M38L, W82F, F117Y
modifications: PEPTIDE (1)...(131) wild-type rat intestinal fatty acid binding protein
B10: 11W, 72A (protein, listed as Rattus norvegicus)
chain: B1 chain with N11W, L14Y, M38L, F117Y
modifications: PEPTIDE (1)...(131) wild-type rat intestinal fatty acid binding protein
B11: 78A, 72A (protein, listed as Rattus norvegicus)
chain: B1 chain with L14Y, M38L, L78A, F117Y
modifications: PEPTIDE (1)...(131) wild-type rat intestinal fatty acid binding protein
B12: 106M, 72A (protein, listed as Rattus norvegicus)
chain: B1 chain with L14Y, M38L, R106M, F117Y
modifications: PEPTIDE (1)...(131) wild-type rat intestinal fatty acid binding protein
B13: 78Y, 72A (protein, listed as Rattus norvegicus)
chain: B1 chain with L14Y, M38L, L78Y, F117Y
modifications: PEPTIDE (1)...(131) wild-type rat intestinal fatty acid binding protein
B14: 21I, 72A (protein, listed as Rattus norvegicus)
chain: B1 chain with L14Y, M21I, M38L, F117Y
modifications: PEPTIDE (1)...(131) wild-type rat intestinal fatty acid binding protein
B15: 49D, 72A (protein, listed as Rattus norvegicus)
chain: B1 chain with L14Y, M38L, V49D, F117Y
modifications: PEPTIDE (1)...(131) wild-type rat intestinal fatty acid binding protein
B16: 104Y, 72A (protein, listed as Rattus norvegicus)
chain: B1 chain with L14Y, M38L, A104Y, F117Y
modifications: PEPTIDE (1)...(131) wild-type rat intestinal fatty acid binding protein
B17: 78I, 72A (protein, listed as Rattus norvegicus)
chain: B1 chain with L14Y, M38L, L78I, F117Y
modifications: PEPTIDE (1)...(131) wild-type rat intestinal fatty acid binding protein
B18: 78V, 72A (protein, listed as Rattus norvegicus)
chain: B1 chain with L14Y, M38L, L78V, F117Y
modifications: PEPTIDE (1)...(131) wild-type rat intestinal fatty acid binding protein
B19: 55I, 72A (protein, listed as Rattus norvegicus)
chain: B1 chain with L14Y, M38L, F55I, F117Y
modifications: PEPTIDE (1)...(131) wild-type rat intestinal fatty acid binding protein
B20: 38I 72G (protein, listed as Rattus norvegicus)
chain: B1 chain with L14Y, M38I, A72G, F117Y
modifications: PEPTIDE (1)...(131) wild-type rat intestinal fatty acid binding protein
B21: 21V, 72A (protein, listed as Rattus norvegicus)
chain: B1 chain with L14Y, M21V, M38L, F117Y
modifications: PEPTIDE (1)...(131) wild-type rat intestinal fatty acid binding protein
B22: 11V, 72A (protein, listed as Rattus norvegicus)
chain: B1 chain with N11V, L14Y, M38L, F117Y
modifications: PEPTIDE (1)...(131) wild-type rat intestinal fatty acid binding protein
B23: 115N, 72A (protein, listed as Rattus norvegicus)
chain: B1 chain with L14Y, M38L, Q115N, F117Y
modifications: PEPTIDE (1)...(131) wild-type rat intestinal fatty acid binding protein

Assay: Probe fluorescence ratio response to linolenic acid relative to ADIFAB2
Type: binding
Details: response relative to ADIFAB2
In short: (§1)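 Fluorescently labeled rat intestinal FABP variants were read at two emission wavelengths, near the unbound maximum (about 420 to 480 nm) and the FFA-bound maximum (about 495 to 580 nm). R = Fλ1/Fλ2 after subtracting probe-free intensity; ΔR = R+agent − R0, normalized to ADIFAB2 (rI-FABP-L72A).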

| Molecule | DR/DR LNA |
| --- | --- |
| B1 | 0.921 |
| B2 | 1.181 |
| B3 | 0.547 |
| B4 | 0.513 |
| B5 | 0.591 |
| B6 | 0.335 |
| B7 | 1.025 |
| B8 | 0.812 |
| B9 | 0.334 |
| B10 | 0.357 |
| B11 | 0.429 |
| B12 | 0.490 |
| B13 | 0.871 |
| B14 | 0.412 |
| B15 | 0.296 |
| B16 | 0.278 |
| B17 | 0.958 |
| B18 | 0.798 |
| B19 | 0.885 |
| B20 | 0.701 |
| B21 | 0.889 |
| B22 | 0.763 |
| B23 | 0.726 |

Assay: Probe fluorescence ratio response to palmitic acid relative to ADIFAB2
Type: binding
Details: response relative to ADIFAB2
In short: as §1

| Molecule | DR/DR PA |
| --- | --- |
| B1 | 0.472 |
| B2 | 0.740 |
| B3 | 0.085 |
| B4 | 0.055 |
| B5 | 0.147 |
| B6 | 0.249 |
| B7 | 0.928 |
| B8 | 0.231 |
| B9 | 0.223 |
| B10 | 0.199 |
| B11 | 0.190 |
| B12 | 0.183 |
| B13 | 0.520 |
| B14 | 0.162 |
| B15 | 0.161 |
| B16 | 0.140 |
| B17 | 0.748 |
| B18 | 0.615 |
| B19 | 0.774 |
| B20 | 0.419 |
| B21 | 0.462 |
| B22 | 0.732 |
| B23 | 0.558 |

Assay: Probe fluorescence ratio response to linoleic acid relative to ADIFAB2
Type: binding
Details: response relative to ADIFAB2
In short: as §1

| Molecule | DR/DR LA |
| --- | --- |
| B1 | 0.830 |
| B2 | 1.099 |
| B3 | 0.622 |
| B4 | 0.548 |
| B5 | 0.584 |
| B6 | 0.324 |
| B7 | 1.041 |
| B8 | 0.764 |
| B9 | 0.422 |
| B10 | 0.344 |
| B11 | 0.372 |
| B12 | 0.485 |
| B13 | 0.908 |
| B14 | 0.365 |
| B15 | 0.324 |
| B16 | 0.265 |
| B17 | 0.874 |
| B18 | 0.865 |
| B19 | 0.834 |
| B20 | 0.772 |
| B21 | 0.871 |
| B22 | 0.825 |
| B23 | 0.777 |

Assay: Probe fluorescence ratio response to oleic acid relative to ADIFAB2
Type: binding
Details: response relative to ADIFAB2
In short: as §1

| Molecule | DR/DR OA |
| --- | --- |
| B1 | 0.458 |
| B2 | 1.108 |
| B3 | 0.337 |
| B4 | 0.297 |
| B5 | 0.423 |
| B6 | 0.329 |
| B7 | 1.057 |
| B8 | 0.395 |
| B9 | 0.403 |
| B10 | 0.227 |
| B11 | 0.350 |
| B12 | 0.510 |
| B13 | 0.845 |
| B14 | 0.310 |
| B15 | 0.316 |
| B16 | 0.236 |
| B17 | 0.923 |
| B18 | 0.864 |
| B19 | 0.901 |
| B20 | 0.861 |
| B21 | 0.739 |
| B22 | 0.552 |
| B23 | 0.711 |

Assay: Probe fluorescence ratio response to arachidonic acid relative to ADIFAB2
Type: binding
Details: arachidonic acid; response relative to ADIFAB2
In short: as §1

| Molecule | DR/DR AA |
| --- | --- |
| B1 | 0.861 |
| B2 | 1.255 |
| B3 | 0.928 |
| B4 | 0.873 |
| B5 | 0.502 |
| B6 | 0.471 |
| B7 | 1.174 |
| B8 | 0.787 |
| B9 | 1.029 |
| B10 | 0.430 |
| B11 | 0.433 |
| B12 | 0.554 |
| B13 | 1.172 |
| B14 | 0.531 |
| B15 | 0.308 |
| B16 | 0.364 |
| B17 | 1.138 |
| B18 | 1.093 |
| B19 | 1.079 |
| B20 | 0.964 |
| B21 | 0.939 |
| B22 | 0.932 |
| B23 | 0.918 |
